Assay results from the nanobody polyreactivity screen of Harvey et al. (2022).

Experiment: yeast display, Sf9 membrane polyspecificity reagent, FACS + sequencing; frameworks hold sequencing errors
Method in brief: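 Polyreactivity labels are assigned by the sorting gate from which each nanobody was recovered. The gates were low and high (top ~1%), set on anti-HA fluorescence for expression and streptavidin fluorescence for reagent binding. Before sorting, galactose-induced (36–48 hours) yeast display cells were stained for 1 hour at 4 °C with 10% biotinylated, detergent-solubilized Sf9 membrane reagent.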

**Q.** For “QVQLVESGGGLVQAGGSLRLSCAASGNIFTGYMGWYRQAPRKERELVAAISRSGGRTHYADSVKGRFTISRDNAKNTVYLQMNSLKPEDTAVYYCNADVRRYTAFTKYPYAFNYWGQGTQVTVSS”, which “polyreactivity (PSR sort gate)” value is on record?
**A.** The value was “high polyreactivity”.

**Q.** With “QVQLVESGGGLVQAGGSLRLSCAASGNIFTQYGMGWYRQAPGKERELVAAISRRGGSTYYADSVKGRFTISRDNAKNTVYLQMNSLNPEDTAVYYCARRTNRPPWGFEYWGQGTQVTVSS” as the sequence, how does the “polyreactivity (PSR sort gate)” value read?
**A.** The value was “high polyreactivity”.

**Q.** Which “polyreactivity (PSR sort gate)” value does the source give for “QVQLVESGGGLVQAGGSLRLSCAASGNIFVVNAMGWYRQAPGIERELVAAITVSGGSTYYADSVKGRFTISRDNAKNTVYLQMNRLKPEDTAVYYCNAYYWHDNWDIELGKFDYWGQGTQVTVSS” here?
**A.** Its value is “low polyreactivity”.

**Q.** For “QVQLVESGGGLVQAGGSLRLSCAASGNIFWSNAMGWYRQAPGKERELVAGITSSTGSTYYADSVKGRFTISRDNAKNTVYLQMNSLKPEDTAVYSCAARYRYYPVTTRGYYWGQGTQVTVSS”, which “polyreactivity (PSR sort gate)” value is on record?
**A.** The value was “high polyreactivity”.

**Q.** Which “polyreactivity (PSR sort gate)” value does the source give for “QVQLVESGGGLVQAGGSLRLSCAASGNIIDANAMGWYRQAPGKERELVAAITSSGGSTYYADSVKGRFTISRDNANNTVYLQMNSLKPEDTAVYYCAKSHAIYYWWDESWGHGTQVTVSS” here?
**A.** The value was “low polyreactivity”.

**Q.** With “QVQLVESGGGLVQAGGSLRLSCAASGNIIVFYAMGWYRQAPGKEREFVAAITSGGSTNYADSVKGRFTISRDNAKNTVYLQMNSLKPEDTAVYYCAGRQWFSHRRWGGSRYDYWGQGTQVTVSS” as the sequence, how does the “polyreactivity (PSR sort gate)” value read?
**A.** The value was “high polyreactivity”.

**Q.** With “QVQLVESGGGLVQAGGSLRLSCAASGNIIWGNAMGWYRQAPGKERELVAAISRRSGSTYYADSVKGRFTISRDNAKNTVYLQMNSLKPEDTAVYYCNTAGRVGTYDYWGQGTQVTVSS” as the sequence, how does the “polyreactivity (PSR sort gate)” value read?
**A.** The value was “high polyreactivity”.

**Q.** With “QVQLVESGGGLVQAGGSLRLSCAASGNILARGYAMGWYRQAPGKERELVAAITFNDGSTYYADSVKGRFTISRDNAKNTVYLQMNSLKPEDTAVYYCAADFSYVYYLYDYWGQGTQVTVSS” as the sequence, how does the “polyreactivity (PSR sort gate)” value read?
**A.** The value was “low polyreactivity”.

**Q.** Which “polyreactivity (PSR sort gate)” value does the source give for “QVQLVESGGGLVQAGGSLRLSCAASGNILASNAMGWYRQAPGKERELVAAITISGDTTYYADSVKGRFTISRDNAKNTVYLQMNSLKPEDTAVYYCNAVSFIVNGGYDGDYWGQGTQVTVSS” here?
**A.** Its value is “low polyreactivity”.

**Q.** Which “polyreactivity (PSR sort gate)” value does the source give for “QVQLVESGGGLVQAGGSLRLSCAASGNILGYNAMGWYRQAPGKERELVAAISWIGGSTYYADSVKGRFTISRDNAKNTVYLQMNSLKPEDTAVYYCAARRVIYYPAFYYDYYYWGQGTQVTVSS” here?
**A.** Its value is “low polyreactivity”.

**Q.** For “QVQLVESGGGLVQAGGSLRLSCAASGNILGYNAMGWYRQAPGKERELVAAISWIGGSTYYADSVKGRFTISRDNAKNTVYLQMNSLKPEDTAVYYCAARYRTYFTYEFWGQGTQVTVSS”, which “polyreactivity (PSR sort gate)” value is on record?
**A.** Its value is “low polyreactivity”.

**Q.** Which “polyreactivity (PSR sort gate)” value does the source give for “QVQLVESGGGLVQAGGSLRLSCAASGNILPSNAMGRYREAPGKEWELVAAITWSVGRTYYADSVKGRFTISRDNAKYTVYLQMNSLKPEDTAVYYCAADDYWDDVYYYVTGSTGYDYWGQGTQVTVSS” here?
**A.** Its value is “low polyreactivity”.

**Q.** For “QVQLVESGGGLVQAGGSLRLSCAASGNILWFNAMGWYRQAPGKERELVASITSSGGRTYYADSVKGRFTISRDNAKNTVYLQMNSLKPEETAVYYCAAEYYYGWTYSGGLGFLGYNYWGQGTQVTVSS”, which “polyreactivity (PSR sort gate)” value is on record?
**A.** The value was “low polyreactivity”.

**Q.** Which “polyreactivity (PSR sort gate)” value does the source give for “QVQLVESGGGLVQAGGSLRLSCAASGNIRYYAMGWYRQAPGKERELVAAITRRSGNTYYADSVKGRFTISRDNAKNTVYLQMNSLKPEDTAVYYCAVVLYTYLTPYYEMDYWGQGTQVTVSS” here?
**A.** The value was “high polyreactivity”.

**Q.** For “QVQLVESGGGLVQAGGSLRLSCAASGNNFETNAMGWYRQAPGKERELVAAISASGGSTYYADSVKGRFTISRDYAKNTVYLQMNSLKPEDTAVYYCAARRAVRLYYWGQGTQVTVSS”, which “polyreactivity (PSR sort gate)” value is on record?
**A.** Its value is “high polyreactivity”.

**Q.** For “QVQLVESGGGLVQAGGSLRLSCAASGNNFSAYAMGWYRQAPGKERELVATITSGGRTYYADSVKGRFTISRDNAKNTVYLQMNSLKPEDTAVYYCAADGPYYSPYYYWGQGTQVTVSS”, which “polyreactivity (PSR sort gate)” value is on record?
**A.** The value was “low polyreactivity”.

**Q.** Which “polyreactivity (PSR sort gate)” value does the source give for “QVQLVESGGGLVQAGGSLRLSCAASGNNLRYYAMGWYRQAPGKERELVAAITSSGGSTYYADSVKGRFTISRDNAKNTVYLKMNSLKPEDTAVYYCAAVFSYSRYNYWGQGTQVTVSS” here?
**A.** The value was “high polyreactivity”.

**Q.** Which “polyreactivity (PSR sort gate)” value does the source give for “QVQLVESGGGLVQAGGSLRLSCAASGNTFAGNAMGWYRLAPGKERELVAAISYSGGSTYYADSVKGRFTISRDNAKNNVYLQMNSLKPEDTAVYYCNAPQPGNGRTRSRYYYWGQGTQVTVSS” here?
**A.** Its value is “high polyreactivity”.

**Q.** Which “polyreactivity (PSR sort gate)” value does the source give for “QVQLVESGGGLVQAGGSLRLSCAASGNTFDFYAMGWYRQAPGKEREFVAAISNGGSTTYADSVKGRFTISRDNAKNTVYLQMNSLKPEDTAVYYCAADPRNAEYDDASMDYWGQGTQVTVSS” here?
**A.** Its value is “high polyreactivity”.

**Q.** Which “polyreactivity (PSR sort gate)” value does the source give for “QVQLVESGGGLVQAGGSLRLSCAASGNTFDIYAMGWYRQAPGKERELVAAISSSGGSTYYADSVKGRFTISRDNAKNTVYLQMNSLKPEDTAVYYFNARHRQWARGYWGQGTQVTVSS” here?
**A.** Its value is “high polyreactivity”.

**Q.** For “QVQLVESGGGLVQAGGSLRLSCAASGNTFDVYAMGWYRQAPGKEREFVARISGRVGSTYYADSVKGRFTISRDNAKNTVYLQMNSLKPEDTAVYYCAARGRVKYVYGGFGYWGQGTQVTVSS”, which “polyreactivity (PSR sort gate)” value is on record?
**A.** The value was “high polyreactivity”.

**Q.** Which “polyreactivity (PSR sort gate)” value does the source give for “QVQLVESGGGLVQAGGSLRLSCAASGNTFEDYAMGWYRQAPGKERELVAAINSGGSTNYADSVKGRFTISRDNAKNTVYLQMNSLKPEDTAVYYCAAEPGEGFDYWGQGTQVTVSS” here?
**A.** Its value is “low polyreactivity”.

**Q.** With “QVQLVESGGGLVQAGGSLRLSCAASGNTFEYYVMGWYRQAPGKERELVAAITWSTGSTYYADSVKGRFTISRDNAKNTVYLQKNSLKPEDTAVYYCAALYYFIFGRPTRFDYWGQGTQVTVSS” as the sequence, how does the “polyreactivity (PSR sort gate)” value read?
**A.** The value was “low polyreactivity”.

**Q.** For “QVQLVESGGGLVQAGGSLRLSCAASGNTFFYYAMGWYRQAPGKERELVAAINRSGGSTYYADSVKGRFTISRDNAKNTVYLQMNSLKPEDTAVYYCARVLPGGWKSRISDYWGQGTQVTVSS”, which “polyreactivity (PSR sort gate)” value is on record?
**A.** The value was “low polyreactivity”.

**Q.** Which “polyreactivity (PSR sort gate)” value does the source give for “QVQLVESGGGLVQAGGSLRLSCAASGNTFGIYAMGWYRPAPGKERELVAAISSGTSTNYADSVKGRFTISRDNAKNTVYLQMNSLKPEDTAVYYCNADDQYQDVREDYWGQGTQVTVSS” here?
**A.** The value was “low polyreactivity”.

**Q.** Which “polyreactivity (PSR sort gate)” value does the source give for “QVQLVESGGGLVQAGGSLRLSCAASGNTFGNYGMGWYRQAPGKEREFVAAITSRGTSSYYADSVKGRFTISRDNAKNTVYLQMNSLKPEDTAVYYCNARPRYKYPRYDYWGQGTQVTVSS” here?
**A.** The value was “high polyreactivity”.

**Q.** For “QVQLVESGGGLVQAGGSLRLSCAASGNTFGYYALGWYRQAPGKERELVAGISSGGSTNYADSVKGRFTISRDNAKKTVYFQMNSLKPEDTAVYYCNARRYWLRYDYWGQVTQVTVSS”, which “polyreactivity (PSR sort gate)” value is on record?
**A.** The value was “low polyreactivity”.

**Q.** For “QVQLVESGGGLVQAGGSLRLSCAASGNTFHSYVMGWYRQAPGKERELVAAITSGGSTYYADSVKGRFTISRDNAKNTVYLQMNSLKPEDTAVYYCAVDAWTGESYWEHYYWGQGTQVTVSS”, which “polyreactivity (PSR sort gate)” value is on record?
**A.** Its value is “low polyreactivity”.

**Q.** Which “polyreactivity (PSR sort gate)” value does the source give for “QVQLVESGGGLVQAGGSLRLSCAASGNTFIDYAMGWYRQAPGKETELVAAITRGGRTNYADSVKGRFTISRDNAKNTVYLQMNSLKPEDTAVYYCAAALRRRRADFDYWGQGTQVTVSS” here?
**A.** The value was “high polyreactivity”.

**Q.** With “QVQLVESGGGLVQAGGSLRLSCAASGNTFIRYAMGWYRQAPGKEREFVATITKRGGSTYYADSVKGRFTISRDNAKNTVYLQMNSLKPEDTAVYYCARGPSGTPNGNTPYGDNRYNSWGQGTQVTVSS” as the sequence, how does the “polyreactivity (PSR sort gate)” value read?
**A.** The value was “low polyreactivity”.

**Q.** For “QVQLVESGGGLVQAGGSLRLSCAASGNTFKYYAMGWYRQAPGKERELVAAISYSGGSTYYADSVKGRFTISRDNAKNTVYFQMNSLKPEDTAVYYCAADLDSERYFLGQGTQVTVSS”, which “polyreactivity (PSR sort gate)” value is on record?
**A.** The value was “low polyreactivity”.
